Experimental findings from patent publication US10202584B2, “Red-shifted luciferase-luciferin pairs for enhanced bioluminescence” (The Regents of the University of California, priority 2016, dated 2019) are described below.

Substrate in data set [1]: O=c1c(Cc2ccccc2)nc2c(-c3ccccc3)[nH]c(-c3ccccc3)cn1-2
Briefly: purified protein, by the assay type. Particulars: other: apparent, 100 pM enzyme, substrate 0.78 to 50 μM, assay buffer pH 6.0, mean ± s.d., n = 3, 37.0 °C.

Substrate in data set [2]: O=c1c(Cc2ccccc2)nc2c([Se]c3ccccc3)[nH]c(-c3ccccc3)cn1-2
Nature of the data set: purified protein, by the assay type. The following applies: other: apparent, 100 pM enzyme, substrate 0.78 to 50 μM, assay buffer pH 6.0, mean ± s.d., n = 3, 37.0 °C.

B1: teLuc, NanoLuc variant D19S/D85N/C164H, SEQ ID NO: 2 (Oplophorus gracilirostris; … (protein)
chain: MVFTLEDFVGDWRQTAGYNLSQVLEQGGVSSLFQNLGVSVTPIQRIVLSGENGLKIDIHVIIPYEGLSGDQMGQIEKIFKVVYPVDNHHFKVILHYGTLVIDGVTPNMIDYFGRPYEGIAVFDGKKITVTGTLWNGNKIIDERLINPDGSLLFRVTINGVTGWRLHERILA
Turning to B1, in data set [1], the Km came to 10.2 ± 0.4 µM and the kcat amounted to 88.1 ± 0.1 s⁻¹.

B2: yeLuc0.8, NanoLuc variant L18Q/D19A/S28T/C164S, SEQ ID NO: 3 (Oplophorus gracilirostris; … (protein)
chain: MVFTLEDFVGDWRQTAGYNQAQVLEQGGVTSLFQNLGVSVTPIQRIVLSGENGLKIDIHVIIPYEGLSGDQMGQIEKIFKVVYPVDDHHFKVILHYGTLVIDGVTPNMIDYFGRPYEGIAVFDGKKITVTGTLWNGNKIIDERLINPDGSLLFRVTINGVTGWRLSERILA
As to B2, the Km in data set [2] was 6.3 ± 0.5 µM.

B3: Antares2 (Antares with NanoLuc replaced by teLuc, D19S/D85N/C164H; fused to CyOFP1) (Oplophorus gracilirostris; … (protein)
chain: MVFTLEDFVGDWRQTAGYNLSQVLEQGGVSSLFQNLGVSVTPIQRIVLSGENGLKIDIHVIIPYEGLSGDQMGQIEKIFKVVYPVDNHHFKVILHYGTLVIDGVTPNMIDYFGRPYEGIAVFDGKKITVTGTLWNGNKIIDERLINPDGSLLFRVTINGVTGWRLHERILA
In the case of B3, in data set [1], the Km turned out to be 9.7 ± 0.2 µM and the kcat turned out to be 86.1 ± 0.7 s⁻¹.

B4: yeLuc, NanoLuc variant yeLuc0.8-F1L/A14D/V27L/Q69R/R112Q/L142R (yeLuc0.8 = NanoLuc-L18Q/D19A/S28T/C164S), SEQ ID NO: 4 (Oplophorus gracilirostris; … (protein)
chain: MVLTLEDFVGDWRQTDGYNQAQVLEQGGLTSLFQNLGVSVTPIQRIVLSGENGLKIDIHVIIPYEGLSGDRMGQIEKIFKVVYPVDDHHFKVILHYGTLVIDGVTPNMIDYFGQPYEGIAVFDGKKITVTGTLWNGNKIIDERRINPDGSLLFRVTINGVTGWRLSERILA
Regarding B4, in data set [2], the Km amounted to 11.9 ± 0.9 µM and the kcat was 175 ± 5 s⁻¹.

A word on the Km: it is the substrate concentration at which the rate is half of its maximum. For orientation: kcat means the number of substrate molecules converted per active site and unit of time at saturation.
